Source: patent US10781452B2, “FLT3 receptor antagonists for the treatment or the prevention of pain disorders” (INSTITUT NATIONAL DE LA SANTE ET DE LA RECHERCHE MEDICALE …, priority 2010, dated 2020)

Target: T1, full-length mFLT3 (Mus musculus, UniProt Q00342)
T1 construct: host or cells: HEK293T
T1 sequence (Q00342 28-1000): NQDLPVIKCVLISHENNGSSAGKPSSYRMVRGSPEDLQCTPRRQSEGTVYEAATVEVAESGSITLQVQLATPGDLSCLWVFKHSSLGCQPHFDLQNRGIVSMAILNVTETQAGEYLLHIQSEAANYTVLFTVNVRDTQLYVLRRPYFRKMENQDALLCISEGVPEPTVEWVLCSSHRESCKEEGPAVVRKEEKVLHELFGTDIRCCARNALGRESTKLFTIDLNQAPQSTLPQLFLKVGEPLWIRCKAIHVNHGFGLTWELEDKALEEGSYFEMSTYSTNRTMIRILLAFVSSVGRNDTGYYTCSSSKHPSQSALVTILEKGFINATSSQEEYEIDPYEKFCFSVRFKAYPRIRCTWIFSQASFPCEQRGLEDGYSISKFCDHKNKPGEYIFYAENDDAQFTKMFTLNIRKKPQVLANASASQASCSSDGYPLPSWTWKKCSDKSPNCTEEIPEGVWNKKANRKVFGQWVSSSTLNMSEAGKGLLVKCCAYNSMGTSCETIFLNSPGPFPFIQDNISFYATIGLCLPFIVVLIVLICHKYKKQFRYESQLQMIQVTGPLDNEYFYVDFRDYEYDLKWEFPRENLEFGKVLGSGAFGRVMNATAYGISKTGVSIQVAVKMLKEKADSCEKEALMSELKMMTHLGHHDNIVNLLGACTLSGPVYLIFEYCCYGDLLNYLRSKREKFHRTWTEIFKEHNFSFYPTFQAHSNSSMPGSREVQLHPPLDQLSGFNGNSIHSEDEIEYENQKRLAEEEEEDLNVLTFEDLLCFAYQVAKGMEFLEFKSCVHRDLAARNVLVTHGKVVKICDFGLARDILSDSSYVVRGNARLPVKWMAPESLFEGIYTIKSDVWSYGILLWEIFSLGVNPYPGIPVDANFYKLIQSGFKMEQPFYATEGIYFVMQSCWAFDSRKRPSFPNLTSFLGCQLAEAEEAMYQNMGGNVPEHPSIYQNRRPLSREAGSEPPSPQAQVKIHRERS
Experiment: TR-FRET displacement of Red-FL binding, HEK cells expressing full-length mFLT3
Conditions: HEK cells expressing full-length mFLT3, 0.5 nM Red-FL
Protocol: The binding of the A3 antibody to full-length hFLT3 and mFLT3 was measured by displacement of extracellular FL binding on recombinant HEK cells by using time-resolved fluorescence resonance energy transfer (TR-FRET).
Chemicals and reagents. The Tag-lite® labeling medium was from Cisbio Bioassays (Condolet, France). The Lumi4-Tb derivative of O6-Benzylguanine was synthesized by Cisbio Bioassays and is commercialized as SNAP-Lumi4-Tb (Cisbio Bioassays, Ref. SSNPTBE).
A recombinant rh-FLT3-L was produced as previously reported (Verstraete K, et al. Efficient production of bioactive recombinant human Flt3 ligand in E. coli. Protein J, 2009 28: 57-65) and labeled with a red fluorescent probe (Red-FL). Poly-L-ornithine (MW of 30,000-70,000 daltons) was from Sigma-Aldrich. The plasmids encoding for the SNAP tagged human FLT3 (pSNAP-hFLT3) or the mouse FLT3 (pSNAP-mFLT3) used for transient transfection was obtained from Cisbio Bioassays. Monoclonal antibodies against FLT3 (8F2) and phosphotyrosine FLT3 (PY969) were purchased from Cell Signaling Technology and labeled with Lumi4-Tb and d2 respectively, by Cisbio.
Cell culture. HEK293T cells, used for binding assays, were maintained in DMEM Glutamax (Invitrogen) supplemented with antibiotics (penicillin 50 U/ml, streptomycin 50 μg/ml) and 10% heat-inactivated Fetal Calf Serum.
Transfection procedures. […]

B1: A3 antibody: human monoclonal antibody against FLT3; VH SEQ ID NO:1, VL SEQ ID NO:2 (antibody, V domains shown)
VH: EVQLVESGGSLVKPGGSLRLSCAASGFTFSNSYMNWVRQAPGKGLEWISDISGSSRDIDYADFVKGRFTISRDNATNSLYLQMNSLRAEDTAVYYCVRSGNSGMDVWGRGTLVTVSS
VL: QSVLTQPASVSGSPGQSITISCAGTSSDVGGGYYVSWYQQHPGKAPKLMIYYDSYRPSGVSNRFSGSKSGNTASLTISGLQAEDEADYYCSSYTNNSTRVFGGGTKLEIK
modifications: Synthetic VH domain of A3; Synthetic VL region of A3
  IC50, displacement of FL binding: about 17 μg/ml
